Reference: the RNAGym collection of RNA variant scans (doi:10.7554/elife.90254)

B1: LINE1-mini (parent)
chain: GGCAGAGCUCAACACAGCGUGGCAAAGUGGCUGUGGCUAGACUGCC

Variants of: B1
Experiment: self-cleavage, relative activity (ratio to wild type); higher = more cleavage; in vitro, sequencing; the parent is a self-cleaving ribozyme
For G1U U34G, the self-cleavage was 0.06. U9C A12G gave a self-cleavage of 0.04. Variant C3U C45A has a self-cleavage of 0.2. Work on C18U G44C yielded a self-cleavage of 0.28. For A16C U34A, the self-cleavage was 0.04. Work on C18U A25C yielded a self-cleavage of 0.86. For A6G G33A, the self-cleavage was 0.06. In the case of C8G U34A, the self-cleavage is reported as 0.05. G29A C45A showed a self-cleavage of 1.03. For G19C A41U, the self-cleavage was 0.19. With A24U G36A the self-cleavage was 0.22. In the case of G35A A41U, the self-cleavage is reported as 0.14. Work on U32A G44U yielded a self-cleavage of 0.06. Variant U9C U20A has a self-cleavage of 0.04. A11U C31A gave a self-cleavage of 0.04. A24G U34C showed a self-cleavage of 0.1. Work on G40C G44U yielded a self-cleavage of 0.07. For G21U A39U, the self-cleavage was 0.63. With C42G C46U the self-cleavage was 0.09. With C15U U32A the self-cleavage was 0.09. In the case of U32C U43A, the self-cleavage is reported as 0.05. Variant C3G U32G has a self-cleavage of 0.11. In the case of A14U A26G, the self-cleavage is reported as 0.34. U9G A24C gave a self-cleavage of 0.07. With G35U G36C the self-cleavage was 0.11. C3G G17A gave a self-cleavage of 0.14. For G19A U32G, the self-cleavage was 0.1. A25C U32A showed a self-cleavage of 0.05. In the case of C8G C10G, the self-cleavage is reported as 0.02. A4G A11G showed a self-cleavage of 0.12. With U9A A24U the self-cleavage was 0.33. U9C A14U gave a self-cleavage of 0.07. With U34A A39C the self-cleavage was 0.12. U9C G27U gave a self-cleavage of 0.04. Work on G5A U28C yielded a self-cleavage of 0.14. G40C C45G gave a self-cleavage of 0.05. Variant C13G G29C has a self-cleavage of 0.11. For A4U U43G, the self-cleavage was 0.06. For A6G U34C, the self-cleavage was 0.09. For C10G G30A, the self-cleavage was 0.21. C13U G22A gave a self-cleavage of 0.13. For U28C U38A, the self-cleavage was 0.1. In the case of C3G G36A, the self-cleavage is reported as 0.74. In the case of G5A G27U, the self-cleavage is reported as 0.08. A12C G19C showed a self-cleavage of 0.02. Variant C8A U38C has a self-cleavage of 0.2. With A12G C15G the self-cleavage was 0.03. For G21U G22C, the self-cleavage was 1.71. With U32A A39G the self-cleavage was 0.05. With G1U A25C the self-cleavage was 0.21. Work on C3U A16G yielded a self-cleavage of 0.16. Work on A6G A24U yielded a self-cleavage of 0.19. A14U U43A showed a self-cleavage of 0.16. For G7U A16G, the self-cleavage was 0.16. Variant C3A A16U has a self-cleavage of 0.13. A16C C46G gave a self-cleavage of 0.09. Work on G2C C15G yielded a self-cleavage of 0.02. With A4U C8G the self-cleavage was 0.09. For G35A G36C, the self-cleavage was 0.17. G35A G36U showed a self-cleavage of 0.19. Variant A25G U32G has a self-cleavage of 0.12. In the case of G21C U32C, the self-cleavage is reported as 1.82. For C31A A41G, the self-cleavage was 0.08. In the case of G30U, the self-cleavage is reported as 1.62. C8U C18A gave a self-cleavage of 0.18. Variant C31G G40A has a self-cleavage of 0.05. A12U C37G showed a self-cleavage of 0.06. In the case of C10G A25U, the self-cleavage is reported as 0.1. In the case of C13G U32A, the self-cleavage is reported as 0.09. For G17A A26U, the self-cleavage was 0.21. For U20G G35A, the self-cleavage was 0.06. For A24C C46G, the self-cleavage was 0.27. C37G C45A showed a self-cleavage of 0.03. Variant C10A G17C has a self-cleavage of 0.1. In the case of A6C G22U, the self-cleavage is reported as 0.57. U9G A16U gave a self-cleavage of 0.14. C3G A11C gave a self-cleavage of 0.04. U34C C42G gave a self-cleavage of 0.05. U9G C45A showed a self-cleavage of 0.11. In the case of G2C C23G, the self-cleavage is reported as 0.12. For A11G U38C, the self-cleavage was 0.03. With G1C A16U the self-cleavage was 0.02. Variant G5A C10G has a self-cleavage of 0.03. For G21U A26U, the self-cleavage was 1.93. For G5A A24U, the self-cleavage was 0.11. For C18G G40A, the self-cleavage was 0.05. G2U U32C gave a self-cleavage of 0.03. Variant C10G U43G has a self-cleavage of 0.02. C3G G5U gave a self-cleavage of 0.11. A24C U38C gave a self-cleavage of 0.31. In the case of G5U G17A, the self-cleavage is reported as 0.1. Work on A41U G44A yielded a self-cleavage of 0.31. For A14U C18U, the self-cleavage was 0.08. C23U U32C gave a self-cleavage of 0.61. G19U G27U gave a self-cleavage of 0.58. With G7U G35C the self-cleavage was 0.08. Variant A6G G19U has a self-cleavage of 0.15. Work on G22C A24G yielded a self-cleavage of 0.74. With A14G G33C the self-cleavage was 0.03. For C3A G7A, the self-cleavage was 0.97. Variant C10U A12G has a self-cleavage of 0.02. A6G U38G showed a self-cleavage of 0.01. For G17U A24U, the self-cleavage was 0.25. In the case of C10G U32A, the self-cleavage is reported as 0.02. C3U C46A showed a self-cleavage of 0.18. For A16G G30U, the self-cleavage was 0.31. With A16C A25G the self-cleavage was 0.07. C42G U43G showed a self-cleavage of 0.06. For C42G U43C, the self-cleavage was 0.03. Variant G7C G35U has a self-cleavage of 0.18. For G1A A6C, the self-cleavage was 0.81. Variant C37G G40U has a self-cleavage of 0.08. A12G C45U showed a self-cleavage of 0.05. For U28G U32A, the self-cleavage was 0.05. U28G G36U showed a self-cleavage of 0.12. With C31G G33U the self-cleavage was 0.06. A4U A26C showed a self-cleavage of 0.14. Variant U9C G36U has a self-cleavage of 0.03. C3G G44U gave a self-cleavage of 1.21. U34C C46A gave a self-cleavage of 0.16. With G2U U43A the self-cleavage was 0.04. Work on C13G C45U yielded a self-cleavage of 0.26. In the case of C8U G29A, the self-cleavage is reported as 0.21. G7C G27U showed a self-cleavage of 0.11. Work on C13U C23A yielded a self-cleavage of 0.26. G1C U9A showed a self-cleavage of 0.02. C31A G35C showed a self-cleavage of 0.04. For U9G C18G, the self-cleavage was 0.04. In the case of C3G C37G, the self-cleavage is reported as 0.13. Variant A11C C31U has a self-cleavage of 0.03. A6U G7A gave a self-cleavage of 0.26. Variant C8U A25C has a self-cleavage of 0.21. In the case of G27A G36C, the self-cleavage is reported as 0.25. A6C A26U showed a self-cleavage of 0.77. With A24G U32G the self-cleavage was 0.14. With A25C G33A the self-cleavage was 0.05. Variant A12U U32A has a self-cleavage of 0.04. In the case of C18G G36C, the self-cleavage is reported as 0.08. C37U G40C gave a self-cleavage of 0.24. With C37U U38C the self-cleavage was 0.06. Work on G1U A11U yielded a self-cleavage of 0.07. Variant G17U G29C has a self-cleavage of 0.39. Variant U20G U34A has a self-cleavage of 0.06. In the case of A6U G30U, the self-cleavage is reported as 1.27. In the case of C23A C45G, the self-cleavage is reported as 0.42. In the case of C13A A39U, the self-cleavage is reported as 0.23. In the case of C18G U32A, the self-cleavage is reported as 0.05. Work on C10U A39G yielded a self-cleavage of 0.08. Work on C15A C42U yielded a self-cleavage of 0.05. Variant C45G C46A has a self-cleavage of 0.21. Work on G5C U43G yielded a self-cleavage of 0.13. With G22C G35U the self-cleavage was 0.15. In the case of G7C U43G, the self-cleavage is reported as 0.05. With A14U A41G the self-cleavage was 0.1. Work on G17U C37G yielded a self-cleavage of 0.03. A24G G36U showed a self-cleavage of 0.1. With C8A C45A the self-cleavage was 0.7. A4U A14C showed a self-cleavage of 0.12. U34A A41C gave a self-cleavage of 0.03. With C23G U43A the self-cleavage was 0.08. G35C G44A showed a self-cleavage of 0.09. For G2C G44U, the self-cleavage was 0.14. For G40U C42A, the self-cleavage was 0.09. With G7C U32C the self-cleavage was 0.07. G19U G30A showed a self-cleavage of 0.96. A26U U43C showed a self-cleavage of 0.12. Work on G30A C37A yielded a self-cleavage of 0.05.
